Test results published in patent US20180155451A1 (published 2018).

T1: FcγRIIa H (FcγRIIa type H, His at position 131), extracellular domain with C-terminal His tag (human, UniProt P12318 34-217)
T1 construct: extracellular domain; Expressed in FreeStyle293 cells; analyte in the Biacore assay; also called FcgRIIa H; 2aH; not shown: His tag at the C terminus
T1 sequence (looked up): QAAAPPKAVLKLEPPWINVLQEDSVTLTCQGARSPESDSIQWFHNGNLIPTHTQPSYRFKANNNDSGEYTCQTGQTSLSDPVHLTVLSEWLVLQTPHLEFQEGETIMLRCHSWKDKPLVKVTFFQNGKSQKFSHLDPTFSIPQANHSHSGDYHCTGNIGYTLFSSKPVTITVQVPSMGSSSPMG

T2: FcγRIIb, extracellular domain with C-terminal His tag (human, UniProt P31994 43-217)
T2 construct: extracellular domain; Expressed in FreeStyle293 cells; analyte in the Biacore assay; also called FcgRIIb; 2b; not shown: His tag at the C terminus
T2 sequence (looked up): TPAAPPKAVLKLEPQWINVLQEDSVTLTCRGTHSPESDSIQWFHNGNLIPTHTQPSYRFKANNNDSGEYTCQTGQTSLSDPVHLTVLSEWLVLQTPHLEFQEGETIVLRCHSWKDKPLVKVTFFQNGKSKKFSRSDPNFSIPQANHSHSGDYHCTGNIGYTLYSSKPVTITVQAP

T3: FcγRIIb extracellular domain with C-terminal His tag (human, UniProt P31994 43-217)
T3 construct: extracellular domain; Soluble receptor expressed in FreeStyle293 cells; analyte in Biacore; also called FcgRIIb; 2b; not shown: His tag at the C terminus
T3 sequence (looked up): T2 sequence (looked up)

B1: GpH7-A5/GpH7-B3 variant P329_01G/GpL16-k0 (antibody, human IgG1, kappa)
heavy 1: not shown
heavy 2: not shown
light: DIVMTQSPLSLPVTPGEPASISCQASESLVHSNRNTYLHWYLQKPGQSPQLLIYKVSNRFSGVPDRFSGSGSGTDFTLKISRVEAEDVGVYYCSQNTHVPPTFGQGTKVEIERTVAAPSVFIFPPSDEQLKSGTASVVCLLNNFYPREAKVQWKVDNALQSGNSQESVTEQDSKDSTYSLSSTLTLSKADYEKHKVYACEVTHQGLSSPVTKSFNRGEC
notes: He Ab; IgG1; mutation in one H chain only; also called He Ab
B2: GpH7-A5/GpH7-B3 variant E333_11K/GpL16-k0 (antibody, human IgG1, kappa)
heavy 1: not shown
heavy 2: not shown
light: B1 light
notes: as for B1
B3: GpH7-A5/GpH7-B3 variant A330_18N/GpL16-k0 (antibody, human IgG1, kappa)
heavy 1: not shown
heavy 2: not shown
light: B1 light
notes: as for B1
B4: GpH7-A5/GpH7-B3 variant A330_13S/GpL16-k0 (antibody, human IgG1, kappa)
heavy 1: not shown
heavy 2: not shown
light: B1 light
notes: as for B1
B5: GpH7-A5/GpH7-B3 variant A330_03V/GpL16-k0 (antibody, human IgG1, kappa)
heavy 1: not shown
heavy 2: not shown
light: B1 light
notes: as for B1
B6: GpH7-A5/GpH7-B3 variant A327_19Q/GpL16-k0 (antibody, human IgG1, kappa)
heavy 1: not shown
heavy 2: not shown
light: B1 light
notes: as for B1
B7: GpH7-A5/GpH7-B3 variant E333_01G/GpL16-k0 (antibody, human IgG1, kappa)
heavy 1: not shown
heavy 2: not shown
light: B1 light
notes: as for B1
B8: GpH7-A5/GpH7-B3 variant A330_07I/GpL16-k0 (antibody, human IgG1, kappa)
heavy 1: not shown
heavy 2: not shown
light: B1 light
notes: as for B1
B9: GpH7-A5/GpH7-B3 variant A327_04F/GpL16-k0 (antibody, human IgG1, kappa)
heavy 1: not shown
heavy 2: not shown
light: B1 light
notes: as for B1
B10: GpH7-A5/GpH7-B3 variant E333_18N/GpL16-k0 (antibody, human IgG1, kappa)
heavy 1: not shown
heavy 2: not shown
light: B1 light
notes: as for B1
B11: GpH7-A5/GpH7-B3 variant A327_06M/GpL16-k0 (antibody, human IgG1, kappa)
heavy 1: not shown
heavy 2: not shown
light: B1 light
notes: as for B1
B12: GpH7-A5/GpH7-B3 variant A330_14T/GpL16-k0 (antibody, human IgG1, kappa)
heavy 1: not shown
heavy 2: not shown
light: B1 light
notes: as for B1
B13: GpH7-A5/GpH7-B3 variant A330_08L/GpL16-k0 (antibody, human IgG1, kappa)
heavy 1: not shown
heavy 2: not shown
light: B1 light
notes: as for B1
B14: GpH7-A5/GpH7-B3 variant E333_13S/GpL16-k0 (antibody, human IgG1, kappa)
heavy 1: not shown
heavy 2: not shown
light: B1 light
notes: as for B1
B15: GpH7-A5/GpH7-B3 variant I332_03V/GpL16-k0 (antibody, human IgG1, kappa)
heavy 1: not shown
heavy 2: not shown
light: B1 light
notes: as for B1
B16: GpH7-A5/GpH7-B3 variant A330_12R/GpL16-k0 (antibody, human IgG1, kappa)
heavy 1: not shown
heavy 2: not shown
light: B1 light
notes: as for B1
B17: GpH7-A5/GpH7-B3 variant P329_04F/GpL16-k0 (antibody, human IgG1, kappa)
heavy 1: not shown
heavy 2: not shown
light: B1 light
notes: He Ab: heterodimerized anti-glypican-3 IgG1, substitution in one H chain only; also called He Ab P329F

Molecular target: T1, FcγRIIa H (FcγRIIa type H, His at …)
Assay: SPR Biacore, captured antibody, FcgR analyte; GpH7-A5/GpH7-B3/GpL16-k0 = 100

| He/Con_2aH | Binder |
| --- | --- |
| 54.9 % of HeCon Ab | B1 |
| 98.1 % of HeCon Ab | B2 |
| 81.6 % of HeCon Ab | B3 |
| 65.4 % of HeCon Ab | B4 |
| 79.7 % of HeCon Ab | B5 |
| 67.3 % of HeCon Ab | B6 |
| 97.7 % of HeCon Ab | B7 |
| 87.3 % of HeCon Ab | B8 |
| 84.4 % of HeCon Ab | B9 |
| 96.2 % of HeCon Ab | B10 |
| 75.5 % of HeCon Ab | B11 |
| 94.5 % of HeCon Ab | B12 |
| 87.6 % of HeCon Ab | B13 |
| 101 % of HeCon Ab | B14 |
| 105 % of HeCon Ab | B15 |
| 108 % of HeCon Ab | B16 |

Molecular target: T2, FcγRIIb, extracellular domain with …
Assay: as above

| He/Con_2b | Binder |
| --- | --- |
| 41.7 % of HeCon Ab | B1 |
| 80.6 % of HeCon Ab | B2 |
| 63.7 % of HeCon Ab | B3 |
| 41.3 % of HeCon Ab | B4 |
| 52.4 % of HeCon Ab | B5 |
| 54.2 % of HeCon Ab | B6 |
| 81.4 % of HeCon Ab | B7 |
| 67.1 % of HeCon Ab | B8 |
| 63.7 % of HeCon Ab | B9 |
| 76.1 % of HeCon Ab | B10 |
| 59.5 % of HeCon Ab | B11 |
| 77.9 % of HeCon Ab | B12 |
| 70.5 % of HeCon Ab | B13 |
| 81.8 % of HeCon Ab | B14 |
| 80.7 % of HeCon Ab | B15 |
| 84.8 % of HeCon Ab | B16 |

Molecular target: T4, FcγRIa extracellular domain with C-terminal His tag (human, UniProt P12314 16-292)
T4 construct: extracellular domain; Soluble receptor expressed in FreeStyle293 cells; analyte in Biacore; also called FcgRI; FcgRIa; not shown: His tag at the C terminus
Assay: SPR (Biacore); He/Con_1a divided by He/Con_2b (FcγRIIb)
Outline: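 Each FcγR was diluted in HBS-EP+ and injected at 25 °C over antibody held by an antigen-peptide sensor surface. Bound antibody was stripped with 10 mM glycine-HCl, pH 1.5, so chips could be reused.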

T4 sequence (P12314 16-292): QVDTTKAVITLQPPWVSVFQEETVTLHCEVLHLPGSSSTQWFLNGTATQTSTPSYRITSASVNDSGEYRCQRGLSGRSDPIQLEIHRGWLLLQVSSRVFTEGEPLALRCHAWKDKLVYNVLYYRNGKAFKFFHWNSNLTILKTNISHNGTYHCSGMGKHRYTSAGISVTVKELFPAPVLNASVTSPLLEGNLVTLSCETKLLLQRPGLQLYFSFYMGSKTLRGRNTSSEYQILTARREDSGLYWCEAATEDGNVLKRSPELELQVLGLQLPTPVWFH

| He_1a/2b (Ia/IIb) | Binder |
| --- | --- |
| 2.88 | B17 |

Molecular target: T3, FcγRIIb extracellular domain with …
Assay: SPR (Biacore), antibody captured on antigen peptide chip, FcγR as analyte; binding relative to GpH7-A5/GpH7-B3/GpL16-k0 = 100

| He/Con_2b (IIb binding) | Binder |
| --- | --- |
| 32.2 % of control (control = 100) | B17 |

Molecular target: T4, FcγRIa extracellular domain with …
Assay: as above

| He/Con_1a (Ia binding) | Binder |
| --- | --- |
| 92.7 % of control (control = 100) | B17 |

Molecular target: T1, FcγRIIa H (FcγRIIa type H, His at …)
Assay: SPR Biacore; He/Con_2aH divided by He/Con_2b (reference: FcgRIIb)

| He_2aH/2b (IIaH/IIb) | Binder |
| --- | --- |
| 1.32 | B1 |
| 1.22 | B2 |
| 1.28 | B3 |
| 1.58 | B4 |
| 1.52 | B5 |
| 1.24 | B6 |
| 1.2 | B7 |
| 1.3 | B8 |
| 1.32 | B9 |
| 1.26 | B10 |
| 1.27 | B11 |
| 1.21 | B12 |
| 1.24 | B13 |
| 1.23 | B14 |
| 1.3 | B15 |
| 1.27 | B16 |
